From US20070004636

Experiments:
[1] = system: T1, human hepatocyte nuclear factor 4α (HNF-4α), His and Xpress-tagged at the N-terminus
T1 sequence: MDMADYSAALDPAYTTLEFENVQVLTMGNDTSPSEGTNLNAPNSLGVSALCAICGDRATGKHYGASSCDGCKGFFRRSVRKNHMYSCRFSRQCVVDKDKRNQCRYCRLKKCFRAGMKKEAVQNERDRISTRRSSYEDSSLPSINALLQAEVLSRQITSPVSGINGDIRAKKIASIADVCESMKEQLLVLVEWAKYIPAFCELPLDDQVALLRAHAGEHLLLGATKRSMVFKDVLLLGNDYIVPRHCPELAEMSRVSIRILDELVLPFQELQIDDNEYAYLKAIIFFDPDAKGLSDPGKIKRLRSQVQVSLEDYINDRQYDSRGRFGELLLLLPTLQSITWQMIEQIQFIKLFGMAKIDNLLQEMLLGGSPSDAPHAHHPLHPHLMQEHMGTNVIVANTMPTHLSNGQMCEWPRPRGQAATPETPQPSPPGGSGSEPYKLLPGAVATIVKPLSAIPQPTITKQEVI

[2] = system: human hepatocyte nuclear factor 1α (HNF-1α), His and Xpress-tagged at the N-terminus
human hepatocyte nuclear factor 1α (HNF-1α), His and Xpress-tagged at the N-terminus, sequence (chain, as listed by the source): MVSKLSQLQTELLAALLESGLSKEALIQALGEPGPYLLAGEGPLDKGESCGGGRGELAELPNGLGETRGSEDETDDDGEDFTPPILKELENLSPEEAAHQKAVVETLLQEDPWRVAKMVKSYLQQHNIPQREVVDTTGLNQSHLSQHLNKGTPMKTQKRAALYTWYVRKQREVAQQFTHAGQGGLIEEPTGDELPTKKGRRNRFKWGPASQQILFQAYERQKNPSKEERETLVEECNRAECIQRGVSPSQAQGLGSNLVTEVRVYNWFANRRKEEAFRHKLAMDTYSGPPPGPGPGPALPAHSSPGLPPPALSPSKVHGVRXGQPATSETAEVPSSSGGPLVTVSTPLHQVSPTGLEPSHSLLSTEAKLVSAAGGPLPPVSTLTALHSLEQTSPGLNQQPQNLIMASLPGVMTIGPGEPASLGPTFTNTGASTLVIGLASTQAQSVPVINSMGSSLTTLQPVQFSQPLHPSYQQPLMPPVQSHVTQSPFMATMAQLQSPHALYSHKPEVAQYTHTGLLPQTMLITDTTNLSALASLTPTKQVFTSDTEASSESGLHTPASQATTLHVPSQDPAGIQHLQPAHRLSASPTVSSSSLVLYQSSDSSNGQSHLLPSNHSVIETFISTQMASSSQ

[3] = system: human insulin promoter factor 1 (IPF-1), His and Xpress-tagged at the N-terminus
human insulin promoter factor 1 (IPF-1), His and Xpress-tagged at the N-terminus, sequence (chain, as listed by the source): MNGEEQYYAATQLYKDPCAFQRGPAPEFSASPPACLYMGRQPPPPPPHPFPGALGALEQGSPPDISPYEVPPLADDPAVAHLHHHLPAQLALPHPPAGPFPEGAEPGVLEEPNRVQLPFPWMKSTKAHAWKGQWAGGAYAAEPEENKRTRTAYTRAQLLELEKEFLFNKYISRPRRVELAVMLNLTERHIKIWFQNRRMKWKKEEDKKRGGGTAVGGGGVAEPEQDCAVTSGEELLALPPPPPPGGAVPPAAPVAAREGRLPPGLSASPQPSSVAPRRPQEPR

Substance | in vitro protein degradation test, Western blotting with anti-HNF-4α antibody [1] | in vitro protein degradation test, Western blotting with anti-HNF-1α antibody [2] | in vitro protein degradation test, Western blotting with anti-IPF-1 antibody [3] | in vitro protein degradation test, Western blotting with anti-HNF-4α and anti-Xpress antibody [1] | in vitro protein degradation test, Western blotting with anti-Omni/M21 and anti-HNF-1α antibody [2] | in vitro protein degradation test, Western blotting with anti-Xpress and anti-IPF-1 antibody [3]
human m-calpain coexpressed with calpain small subunit 1 in sf-9 insect cells (cell lysate) | the degradation of human HNF-4α by human m-calpain was observed | the degradation of human HNF-1α by human m-calpain was observed | the degradation of human IPF-1 by human m-calpain was observed |  |  | 
rabbit m-calpain, extracted from rabbit muscle (Protease, Calcium-Activated Neutral (calpain), Sigma Chemical Co.) |  |  |  | the degradation of HNF-4α by rabbit m-calpain was observed | the in vitro degradation of HNF-1α by each of human µ-calpain, rabbit m-calpain and rat m-calpain was observed | the in vitro degradation of IPF-1 by each of human µ-calpain, rabbit m-calpain and rat m-calpain was observed
